How the values were obtained:
Male C57BL/KsJ mice = assay: Intraperitoneal glucose tolerance test (IPGTT) after a single s.c. dose; type: in vivo; conditions: s.c. 30 nmol/kg
Experimental: Male C57BL/KsJ mice of 6 weeks old are randomized into a vehicle control group, a positive drug group and a test protein group according to body weights and blood glucose levels, and are subcutaneously (s.c.) injected with corresponding drugs. An intraperitoneal glucose tolerance test (IPGTT) is performed after dosing for a period of time following the steps as follows: fast the mice for 6 h, collect blood samples from tail veins of the mice in each group before the test, measure the blood glucose levels with a Roche ACCU-CHEK blood glucose meter and record the results at a −60 min time point; measure blood glucose levels again at 0 min in each group before intraperitoneally injecting 2 g/kg glucose (body weight), afterwards measure and record blood glucose levels of mice in each group at 15 min, 30 min, 60 min and 120 min. An IPGTT curve is plotted based on the blood glucose levels to calculate the areas under curve (AUC0-120 min (mM*min)), and the differences are statistically analyzed using the t-test.

[1] = Stability in rat serum in vitro, read as remaining activity in activating hGLP-1R; type: in vitro ADME; conditions: 37° C., activity at 0.03 nM, day 0 as 100%
Description: The decay rate of protein activity indirectly reflects the stability of the protein in the serum.

[2] = background statement; cited from earlier work
human GLP-1 receptor = human GLP-1 receptor (human, UniProt P43220 24-463); assay: cell-based or functional assay

Activity of Activated hGLP-1R (relative value from EC50, CRE-NanoLuc luciferase reporter in AD293 cells; 100% for GLP1 (7-37)) (human GLP-1 receptor)	Molecule	other results
–	L1: L1 protein (dulaglutide, SEQ ID NO.: 11), GLP-1-Fc fusion protein, positive control, dimer [reference compound]	Decrease of area under curve (AUC) in blood glucose vs solvent control group (Male C57BL/KsJ mice; seven days after a single dose, IPGTT AUC0-120 min): 14.8%; Hypoglycemic activity (AUC) ten days post-dose (Male C57BL/KsJ mice; ten days after a single dose, IPGTT): no significant decrease; Decrease in activity after 7 days of incubation in serum [1]: 33.3%; half-life in vivo [2]: 108 to 113 h
121%	HGEGTFTSDVSSYLEEQAAKEFIAWLVKGGG [Gly8-Glu22-Gly36-GLP1(7-37)]	–
168%	HGEGTFTSDVSSYLEEQAAKEFIAWLVRGAG [Gly8-Glu22-Arg34-Ala36-GLP1(7-37)]	–
113%	HGEGTFTSDVSSYLEEQAAKEFIAWLVRGLG [Gly8-Glu22-Arg34-Leu36-GLP1(7-37)]	–
163%	HGEGTFTSDVSSYLEEQAAKEFIAWLVRGGG [Gly8-Glu22-Arg34-Gly36-GLP1(7-37)]	–
142%	HGEGTFTSDVSSYLEEQAAKEFIAWLVRGVG [Gly8-Glu22-Arg34-Val36-GLP1(7-37)]	–
